# According to publication PMC8672811 (Journal of molecular biology, 2021):
# Like-named read-outs stand apart in the source and are kept apart here.
# Tests used:
# SEC [1] = molecular target: the molecule itself; test: SEC
# crystal structure = molecular target: the molecule itself; test: crystal structure
# SEC [2] = molecular target: the molecule itself; test: SEC; remark: listed apart in the source
# SEC [3] = molecular target: the molecule itself; test: SEC; remark: listed apart in the source
protein,measurement,setting,value
"KcsA W67F channel, locked open (disulfide cross-linked open-state construct) (natural protein, UniProt P0A334 21-125, looked up, Cys mutant channels in the cross-linked state (disulfide crosslink between subunits)) GSALQWRCAGAATVLLVIVLLAGSYLAVLAERGAPGAQLITYPRALFWSVETATTVGYGDLYPVTLWGRLVAVVVMVAGITSFGLVTAALATWFVGQCQQQQGHF",stoichiometry N,SEC [1],4
"KcsA WT channel trapped with the activation gate open (disulfide cross-linked open-state construct) (natural protein, UniProt P0A334 21-125, looked up, Cys mutant channels in the cross-linked state (disulfide crosslink between subunits)) GSALQWRCAGAATVLLVIVLLAGSYLAVLAERGAPGAQLITYPRALWWSVETATTVGYGDLYPVTLWGRLVAVVVMVAGITSFGLVTAALATWFVGQCQQQQGHF",binding result,crystal structure,binds
"KcsA W67F channel (natural protein, UniProt P0A334 1-125, looked up) MPPMLSGLLARLVKLLLGRHGSALHWRAAGAATVLLVIVLLAGSYLAVLAERGAPGAQLITYPRALFWSVETATTVGYGDLYPVTLWGRLVAVVVMVAGITSFGLVTAALATWFVGREQERRGHF",stoichiometry N,SEC [2],4
"KcsA W67F/F103A channel (natural protein, UniProt P0A334 1-125, looked up) MPPMLSGLLARLVKLLLGRHGSALHWRAAGAATVLLVIVLLAGSYLAVLAERGAPGAQLITYPRALFWSVETATTVGYGDLYPVTLWGRLVAVVVMVAGITSAGLVTAALATWFVGREQERRGHF",binding result,SEC [1],binds
"KcsA Y82A channel (natural protein, UniProt P0A334 1-125, looked up) MPPMLSGLLARLVKLLLGRHGSALHWRAAGAATVLLVIVLLAGSYLAVLAERGAPGAQLITYPRALWWSVETATTVGYGDLAPVTLWGRLVAVVVMVAGITSFGLVTAALATWFVGREQERRGHF",stoichiometry N,SEC [3],4
